Measurements: patent US20220170038A1 (COMMONWEALTH SCIENTIFIC INDUSTRIAL RESEARCH ORGANISATION, published 2022)

B3: scar9::GG::NifU::TS (MPP-processed product of the MTP-FAγ51::NifU::TwinStrep fusion polypeptide encoded by SN166) (other)
chain: not shown
notes: Expressed in N. benthamiana leaves with mitochondrial targeting; N-terminal analysis and the tryptic peptide ISTQVVR confirmed cleavage at the intended MPP site; SEC indicated a heterotetramer of 2 NifS and 2 NifU; also called scar9-NifU::TS; scar9-NifU-TwinStrep

Experiments:
[1] = target: T1, scar9::GG::NifU::HA (MPP-processed product of the MTP-FAγ51::NifU::HA fusion polypeptide encoded by SN32) (Klebsiella oxytoca, UniProt P05343 1-274); test: StrepTactinXT pull-down of NifS::TS from leaves co-infiltrated with SN231 and SN32; anti-Strep and anti-HA Western blots
T1 construct: also called scar9::NifU::HA; processed NifU
T1 sequence: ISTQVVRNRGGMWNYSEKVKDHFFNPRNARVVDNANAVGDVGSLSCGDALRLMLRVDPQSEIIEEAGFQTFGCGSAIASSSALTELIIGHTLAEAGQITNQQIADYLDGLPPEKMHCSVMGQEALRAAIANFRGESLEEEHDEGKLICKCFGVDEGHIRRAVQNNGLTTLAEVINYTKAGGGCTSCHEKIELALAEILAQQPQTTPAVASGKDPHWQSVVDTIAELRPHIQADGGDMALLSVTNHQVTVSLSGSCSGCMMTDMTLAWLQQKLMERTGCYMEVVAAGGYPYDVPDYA

[2] = target: B3; test: StrepTactinXT pull-down of NifU::TS from N. benthamiana leaves co-infiltrated with SN31 and SN166, anaerobic non-denaturing extraction; anti-HA Western blot of the eluate
[3] = target: T2, scar9::GG::NifS::HA (MPP-processed product of the MTP-FAγ51::NifS::HA fusion polypeptide encoded by SN31) (Klebsiella oxytoca, UniProt P05344 1-397); test: StrepTactinXT pull-down of NifU::TS from leaves co-infiltrated with SN31 and SN166, first purification; anti-Strep and anti-HA Western blots
T2 construct: This processed form was the one found in the eluate with NifU::TS; also called scar9-NifS::HA; processed NifS
T2 sequence: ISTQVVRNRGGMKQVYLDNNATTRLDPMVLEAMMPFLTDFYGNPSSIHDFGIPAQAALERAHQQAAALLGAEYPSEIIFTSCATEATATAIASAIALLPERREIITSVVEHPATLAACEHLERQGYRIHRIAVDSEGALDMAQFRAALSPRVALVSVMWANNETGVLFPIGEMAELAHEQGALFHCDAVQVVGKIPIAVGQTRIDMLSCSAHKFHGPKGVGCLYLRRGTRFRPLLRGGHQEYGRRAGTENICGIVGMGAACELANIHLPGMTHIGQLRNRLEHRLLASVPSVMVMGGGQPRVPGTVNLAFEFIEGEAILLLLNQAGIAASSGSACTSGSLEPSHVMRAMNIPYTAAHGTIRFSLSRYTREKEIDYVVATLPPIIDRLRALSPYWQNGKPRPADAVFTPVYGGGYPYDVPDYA

B1: scar9::NifS::TS (MPP-processed product of the MTP-FAγ51::NifS::TwinStrep fusion polypeptide encoded by SN231) (enzyme)
chain: not shown
notes: Bait in the reverse pull-down; the text names scar9::NifS::TS in the eluate; also called MTP-FAγ51::NifS::TS
B1: binds [1].

B2: MTP-FAγ51::NifS::HA fusion polypeptide encoded by SN31, unprocessed form (enzyme)
chain: MMAMAVFRREGRRLLPSIAARPIAAIRSPLSSDQEEGLLGVRSISTQVVRNRGGMKQVYLDNNATTRLDPMVLEAMMPFLTDFYGNPSSIHDFGIPAQAALERAHQQAAALLGAEYPSEIIFTSCATEATATAIASAIALLPERREIITSVVEHPATLAACEHLERQGYRIHRIAVDSEGALDMAQFRAALSPRVALVSVMWANNETGVLFPIGEMAELAHEQGALFHCDAVQVVGKIPIAVGQTRIDMLSCSAHKFHGPKGVGCLYLRRGTRFRPLLRGGHQEYGRRAGTENICGIVGMGAACELANIHLPGMTHIGQLRNRLEHRLLASVPSVMVMGGGQPRVPGTVNLAFEFIEGEAILLLLNQAGIAASSGSACTSGSLEPSHVMRAMNIPYTAAHGTIRFSLSRYTREKEIDYVVATLPPIIDRLRALSPYWQNGKPRPADAVFTPVYGGGYPYDVPDYA
notes: Present in the soluble input sample but not detected in the eluate; also called unprocessed NifS; unprocessed MTP-FAγ51::NifS
B2: no binding [2].

B3: binds [3].
